Target: Aβ (amyloid beta peptide, length and aggregation state not specified; ˜4 kDa band) (UniProt P05067)
Experiment: cell-based or functional assay

mouse CypD, endogenous, in brain mitochondria and cultured cortical neurons of nonTg and Tg mAPP mice (from UniProt Q99KR7 30-206) (enzyme)
mitochondrial ROS (MitoSox staining) in brain slices, Tg mAPP/CypD-/- versus Tg mAPP mice: 80%

Reference: patent US20100291074A1, “CYCLOPHILIN D-AMYLOID BETA INTERACTION POTENTIATES MITOCHONDRIAL DYSFUNCTION IN A TRANSGENIC MOUSE MODEL OF ALZHEIMER'S DISEASE” (COLUMBIA UNIVERSITY IN THE CITY OF NEW YORK, priority 2007, published 2010)
